Where “and” joins values, the source holds several entries; their conditions need not be identical. Equal entries are not always repeated.
Tests used:
[1] = tested on: human SNU-1411 colon xenograft tumor; test: SNU-1411 colon xenograft tumor carrying PTPRK(e13)-RSPO3(e2) fusion transcript; type: in vivo, mice
Protocol: FIG. 15 is a set of graphs showing anti-tumor efficacy of in human SNU-1411 colon xenograft tumor carrying PTPRK(e13)-RSPO3(e2) fusion transcript. Tumor cells were injected into the mice and treatments were initiated when the tumors reaches 200 mm^3. Antibodies were given at 25 mg/kg once every other week (Q2W) and paclitaxel at 20 mg/kg once every week (Q1W). Both antibodies and […] were administered by intravenous injection. Paclitaxel was given from day 1 to day 32 and combination groups from day 1 to day 46. Both antibodies and paclitaxel were administered by intravenous injection. For each treatment cycle, antibodies were given on day 1 and paclitaxel on day 3. Tumor and body weight measurements were taken on the indicated days. Mean±SEM. *: p<0.05 vs. control mAb by one-way ANOVA followed by Tukey's post-test comparison.
To determine the effect of antibodies on SNU-1411 xenograft tumor, tumor-bearing animals were randomized and treatment began when mean tumor volumes reached approximately 150-200 mm^3. Antibodies were given once every other week (Q2W) and paclitaxel was administered once a week (Q1W). Both antibody and paclitaxel were administered intravenously. Tumor growth was measured twice a week by an electronic caliper. Tumor volumes were calculated with the formula (L×W^2)/2, where L was the longest and W was the shortest axis of the tumor. Animal weights were recorded once a week. Mice were examined frequently for overt signs of any adverse drug-related side effects. At the end of the study, all the mice were euthanized.

[2] = tested on: RSPO3-Wnt signaling (hRSPO3), MDA-MB436 TCF/LEF-Luc cells; test: TCF/LEF-Luc WNT reporter assay in MDA-MB436 cells stimulated by Wnt3a plus human RSPO3; type: cell-based; settings: MDA-MB436 reporter cell line
Protocol: FIG. 4 is a set of graphs showing RSPO3 Abs targeting the canonical Wnt signaling and in vitro testing for inhibition of β-catenin activity. (A) A1, A2, A4, A5, A6, and A9 clones; (B) B1, B3, B4, B8, and B9 clones; and (C) Dose-response effect of elevated A4 and A6 clones on RSPO-Wnt signaling. MDA-MB436 TCF/LEF-Luc cells were incubated with a combination of Wnt3a (20 ng/mL) and RSPO3 (50 ng/mL) in the presence of 20 μg/mL anti-RSPO3 antibodies clone A1, A2, A4, A5, A6, A9 or 131R002. As controls, cells were incubated with a combination of Wnt3a and RSPO3, Wnt3a only, RSPO3 only, or with no addition. The cells were incubated for 16 hours and the luciferase activity assay was performed using One-Glo Luciferase Assay System.
FIG. 6 is a set of graph showing that anti-RSPO3 Ab inhibits WNT reporter activity stimulated by combination of Wnt3a and RSPO3. […] The cells were incubated for 16 hours. The luciferase activity assay was performed using One-Glo Luciferase Assay System.
Wnt signaling leads to β-catenin/TCF dependent transcriptional responses. MDA-MB436-TCF/LEF-Luc cells, a gift from Dr. Kelvin Kun-Chih Tsai, were employed to monitor the activity of Wnt signal transduction pathways. See, e.g., Wang et al. (2013). Gastroenterology (145): 1110-1120. In brief, MDA-MB436-TCF/LEF-Luc cells were seeded in black flat bottom 96 well culture plates (Costar) in RSPO Medium supplemented with 10% FBS and incubated overnight at 37° C., 5% CO2. 24 hours after incubation, cells were treated with anti-RSPO3 ab, 20 ng/ml WNT3a (R&D system) and RSPO ligands (Peprotech Systems) where appropriate and further incubated for 16 hours. Luciferase activity was measured using Bright-Glo Luciferase Assay System (Promega).

RSPO3 = target: T1, RSPO3 (Homo sapiens, UniProt Q9BXY4); test: Octet (ForteBio) kinetic binding to biotinylated RSPO3; settings: 30° C.
T1 sequence (Q9BXY4 22-272): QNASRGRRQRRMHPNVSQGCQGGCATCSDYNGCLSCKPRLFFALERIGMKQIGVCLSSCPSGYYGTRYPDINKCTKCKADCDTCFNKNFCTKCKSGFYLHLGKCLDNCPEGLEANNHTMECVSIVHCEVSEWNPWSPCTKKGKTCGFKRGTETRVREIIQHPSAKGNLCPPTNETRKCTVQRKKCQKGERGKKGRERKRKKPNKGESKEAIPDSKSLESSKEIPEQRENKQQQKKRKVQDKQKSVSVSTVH
Protocol: The streptavidin-coated sensors were coated with 10 μg/ml of biotinylated RSPO3 as described in the handbook of ForteBio. Antibody concentrations were in the range of 0.75 and 93.8 nM. Quantitative kinetic binding analysis was performed with pH-adjusted PBS with 0.5% BSA. All steps were run at 30° C. with a continuous shaking speed at 1000 rpm.
To assess the RSPO3-binding affinities of the antibodies, kinetics assays were performed by the Octetsystems. The purified monoclonal antibodies (mAbs) from batch-A clones (A1, A4, A6, A9), along with the reference Ab-131R002, were examined for binding with RSPO-3.

RSPO1, 2, 3, and 4 = test: Antigen-binding ELISA, selectivity among RSPO1-4
Description: FIG. 3 is a set of graphs showing Anti-RSPO3 hybridoma antibodies reactivity measured by ELISA. These hybridoma antibodies were reacted with RSPO1-4 antigen immunoblots, which reflect with the RSPO3 antigen. (A) A1, A2, A4, A5, A6, and A9 clones; and (B) B1, B3, B4, B8, and B9 clones.
To assess the RSPO-binding capability of antibodies, purified antibodies were reacted with RSPO1, 2, 3, and 4 on immunoblots. To perform antigen-binding ELISA assay, 96-well high binding polystyrene plates (Corning) were coated with 2 μg/ml of recombinant RSPO3 preparation in the capture buffer by overnight incubation at 4° C. Coated plates were washed twice with PBS supplemented with 0.05% Tween 20 (PBST). The plates were blocked with PBST—10% BSA and assayed with ELISA standard protocol for 1 h at room temperature.

[3] = tested on: hRSPO3 overlapping linear peptides; test: PepSet ELISA epitope mapping with linear 10-mer peptides of RSPO3; type: binding, human; settings: antibody 10 μg/ml
Description: FIG. 8 is a set of graphs showing mapping of the α-RSPO3 Ab epitopes on RSPO3 protein by Pep-set. These histograms represent the ability of each 10-mer oligopeptide to bind the RSPO3 Abs 131R010(A), 131R002 (B), and hybridoma A6 (C) as indicated in the figure. QNASRGRRQR (SEQ ID NO: 74); ASRGRRQRRM (SEQ ID NO: 75); RGRRQRRMHP (SEQ ID NO: 84); RRQRRMHPNV (SEQ ID NO: 76); CLSCKPRLFF (SEQ ID NO: 77); SCKPRLFFAL (SEQ ID NO: 78); ERGKKGRERK (SEQ ID NO: 79); GKKGRERKRK (SEQ ID NO: 80); KGRERKRKKP (SEQ ID NO: 81); RERKRKKPNK (SEQ ID NO: 82); RENKQQQKKR (SEQ ID NO: 83).
ELISA for PepSet library was employed to determine α-RSPO3 hB1 antibodies and RSPO3 binding epitope. […] The colorimetric reaction were then stop by 2N HCL and the optical density at 450 nm of each well were determined immediately.
To identify the binding epitopes of α-RSPO3 Abs, an overlapping peptide library (10-mer for each peptide, offset: 2 amino acid residues, total number of peptides to cover the mature hRSPO3:122) derived from hRSPO3 amino sequences was prepared by Mimotope, Inc. The binding of α-RSPO3 mAbs to the overlapping peptides derived from hRSPO3 was measured. […] According to the epitope mapping results using linear peptides (FIG. 8 and Table 6), it was concluded that hB1 likely binds to a conformationlly-determined epitope on huRSPO3.

## CC(=O)O[C@H]1C(=O)[C@@]2(C)[C@H]([C@H](OC(=O)c3ccccc3)[C@]3(O)C[C@H](OC(=O)[C@H](O)[C@@H](NC(=O)c4ccccc4)c4ccccc4)C(C)=C1C3(C)C)[C@]1(OC(C)=O)CO[C@@H]1C[C@@H]2O [Paclitaxel, reference compound]
[1]; antibodies 25 mg/kg Q2W, paclitaxel 20 mg/kg Q1W, i.v.
  Tumor volume on day 32: 949 ± 105 mm^3
[1]; antibodies 25 mg/kg Q2W, paclitaxel 20 mg/kg Q1W, i.v., mean±SEM
  Tumor volume on day 18: 329 ± 59 mm^3
[1]; antibodies 25 mg/kg Q2W, paclitaxel 20 mg/kg Q1W, i.v., listed as paclitaxel
  Tumor volume on day 32: 950 mm^3
[1]; day 18
  Tumor volume reduction, % of Control mAb: 69% and 69 ± 6* %

B1: A6: murine anti-RSPO3 mAb, IgG2a; VH SEQ ID NO: 6, VL SEQ ID NO: 8 (antibody, V domains shown)
VH: QVQLQQSGAEIVRSGASVKLSCTASGFSITEYYIHWVKQRPDQGLEWIGMIDPENGDTDYAPKFQGKATMTADTSSNTVNLQLSSLTSEDTAVYYCHGPGPLEYWGQGTTLTVSS
VL: DIVMTQSPLSLPVSLGDQASISCRSSQSIVHSNGNTYLEWYLQKPGQSPNLLIYRVSNRFSGVPDRFNGSGSGTDFTLKISRVEPEDLGVYSCFQASHVPYTFGGGTKLEIKR
modifications: Heavy chain variable region; Light chain variable region
[2]
  dose-dependent inhibitory effect in TCF/LEF-Luc reporter: significantly inhibitory effect in a dose-dependent manner
RSPO3
  RMax: 0.2151
  kdis: 0.0025 s⁻¹
  kon: 241000 M⁻¹ s⁻¹
RSPO1, 2, 3, and 4
  selectivity in binding among RSPO1-4 in ELISA: only reacted with RSPO3

B2: B1: murine anti-RSPO3 mAb, IgG1; VH SEQ ID NO: 10, VL SEQ ID NO: 12 (antibody, V domains shown)
VH: QIQLQESGPGLVKPSQSLSLTCSVTGYSITSGYYWNWIRQFPGNKLEWMGYISYDGTNNYNPSLKDRISITRDTSMNQFFLKLNSVTTEDTATYYCSVLLIQYFNIWGAGTTVTVSS
VL: DIQMTQSPASLSASVGETVTITCRTSESVNNFLAWFHQKQGKSPQLLVYHAKTLADGVSSRFSGSGSGTQYSLKINSLQPEDFGNYYCQHFWSIPWTFGGGTKLEIKR
modifications: Heavy chain variable region; Light chain variable region
[2]
  dose-dependent inhibitory effect in TCF/LEF-Luc reporter: significantly inhibitory effect in a dose-dependent manner
RSPO1, 2, 3, and 4
  selectivity in binding among RSPO1-4 in ELISA: only reacted with RSPO3

B3: A4: murine anti-RSPO3 mAb, IgG1; VH SEQ ID NO: 2, VL SEQ ID NO: 4 (antibody, V domains shown)
VH: QVQLQESGAELAKPGASVKMSCKASGHTLTYYWMHWVKQRPGQGLEWIGYIDPSTGYSEYNQRFEGKATLTADKSSGTVYMQLSSLTSEDSAVYYCARNGPFAYWGQGTLVTVSA
VL: DNVLTQSPAIMSASPGEKVTMTCSASSSVNYMYWYQQKPGSSPRLLIYDTSKLASGVPVRFSGSGSGTSYSLTISRMEAEDAATYYCQQWSSSPLTFGVGAKLEIKR
modifications: heavy chain variable region; Light chain variable region
[3]
  Signal (binding to linear RSPO3 peptides): neither the A4 nor the hB1 mAbs showed detectable binding signals
[2]
  dose-dependent inhibitory effect in TCF/LEF-Luc reporter: significantly inhibitory effect in a dose-dependent manner
RSPO3
  RMax: 0.3588
  kdis: 0.000884 s⁻¹
  kon: 32700 M⁻¹ s⁻¹
RSPO1, 2, 3, and 4
  selectivity in binding among RSPO1-4 in ELISA: only reacted with RSPO3

From US11623951B2, “Antibodies to R-spondin 3” (National Health Research Institutes, priority 2017, dated 2023)
